Experimental findings from paper PMC3310290 are described below.

The assay deals with fibrin (Homo sapiens) (UniProt P02671). The assay is described as follows: ELISA. A general note: ELISA stands for enzyme-linked immunosorbent assay.

fibronectin, P02751, sequence (P02751 32-2477): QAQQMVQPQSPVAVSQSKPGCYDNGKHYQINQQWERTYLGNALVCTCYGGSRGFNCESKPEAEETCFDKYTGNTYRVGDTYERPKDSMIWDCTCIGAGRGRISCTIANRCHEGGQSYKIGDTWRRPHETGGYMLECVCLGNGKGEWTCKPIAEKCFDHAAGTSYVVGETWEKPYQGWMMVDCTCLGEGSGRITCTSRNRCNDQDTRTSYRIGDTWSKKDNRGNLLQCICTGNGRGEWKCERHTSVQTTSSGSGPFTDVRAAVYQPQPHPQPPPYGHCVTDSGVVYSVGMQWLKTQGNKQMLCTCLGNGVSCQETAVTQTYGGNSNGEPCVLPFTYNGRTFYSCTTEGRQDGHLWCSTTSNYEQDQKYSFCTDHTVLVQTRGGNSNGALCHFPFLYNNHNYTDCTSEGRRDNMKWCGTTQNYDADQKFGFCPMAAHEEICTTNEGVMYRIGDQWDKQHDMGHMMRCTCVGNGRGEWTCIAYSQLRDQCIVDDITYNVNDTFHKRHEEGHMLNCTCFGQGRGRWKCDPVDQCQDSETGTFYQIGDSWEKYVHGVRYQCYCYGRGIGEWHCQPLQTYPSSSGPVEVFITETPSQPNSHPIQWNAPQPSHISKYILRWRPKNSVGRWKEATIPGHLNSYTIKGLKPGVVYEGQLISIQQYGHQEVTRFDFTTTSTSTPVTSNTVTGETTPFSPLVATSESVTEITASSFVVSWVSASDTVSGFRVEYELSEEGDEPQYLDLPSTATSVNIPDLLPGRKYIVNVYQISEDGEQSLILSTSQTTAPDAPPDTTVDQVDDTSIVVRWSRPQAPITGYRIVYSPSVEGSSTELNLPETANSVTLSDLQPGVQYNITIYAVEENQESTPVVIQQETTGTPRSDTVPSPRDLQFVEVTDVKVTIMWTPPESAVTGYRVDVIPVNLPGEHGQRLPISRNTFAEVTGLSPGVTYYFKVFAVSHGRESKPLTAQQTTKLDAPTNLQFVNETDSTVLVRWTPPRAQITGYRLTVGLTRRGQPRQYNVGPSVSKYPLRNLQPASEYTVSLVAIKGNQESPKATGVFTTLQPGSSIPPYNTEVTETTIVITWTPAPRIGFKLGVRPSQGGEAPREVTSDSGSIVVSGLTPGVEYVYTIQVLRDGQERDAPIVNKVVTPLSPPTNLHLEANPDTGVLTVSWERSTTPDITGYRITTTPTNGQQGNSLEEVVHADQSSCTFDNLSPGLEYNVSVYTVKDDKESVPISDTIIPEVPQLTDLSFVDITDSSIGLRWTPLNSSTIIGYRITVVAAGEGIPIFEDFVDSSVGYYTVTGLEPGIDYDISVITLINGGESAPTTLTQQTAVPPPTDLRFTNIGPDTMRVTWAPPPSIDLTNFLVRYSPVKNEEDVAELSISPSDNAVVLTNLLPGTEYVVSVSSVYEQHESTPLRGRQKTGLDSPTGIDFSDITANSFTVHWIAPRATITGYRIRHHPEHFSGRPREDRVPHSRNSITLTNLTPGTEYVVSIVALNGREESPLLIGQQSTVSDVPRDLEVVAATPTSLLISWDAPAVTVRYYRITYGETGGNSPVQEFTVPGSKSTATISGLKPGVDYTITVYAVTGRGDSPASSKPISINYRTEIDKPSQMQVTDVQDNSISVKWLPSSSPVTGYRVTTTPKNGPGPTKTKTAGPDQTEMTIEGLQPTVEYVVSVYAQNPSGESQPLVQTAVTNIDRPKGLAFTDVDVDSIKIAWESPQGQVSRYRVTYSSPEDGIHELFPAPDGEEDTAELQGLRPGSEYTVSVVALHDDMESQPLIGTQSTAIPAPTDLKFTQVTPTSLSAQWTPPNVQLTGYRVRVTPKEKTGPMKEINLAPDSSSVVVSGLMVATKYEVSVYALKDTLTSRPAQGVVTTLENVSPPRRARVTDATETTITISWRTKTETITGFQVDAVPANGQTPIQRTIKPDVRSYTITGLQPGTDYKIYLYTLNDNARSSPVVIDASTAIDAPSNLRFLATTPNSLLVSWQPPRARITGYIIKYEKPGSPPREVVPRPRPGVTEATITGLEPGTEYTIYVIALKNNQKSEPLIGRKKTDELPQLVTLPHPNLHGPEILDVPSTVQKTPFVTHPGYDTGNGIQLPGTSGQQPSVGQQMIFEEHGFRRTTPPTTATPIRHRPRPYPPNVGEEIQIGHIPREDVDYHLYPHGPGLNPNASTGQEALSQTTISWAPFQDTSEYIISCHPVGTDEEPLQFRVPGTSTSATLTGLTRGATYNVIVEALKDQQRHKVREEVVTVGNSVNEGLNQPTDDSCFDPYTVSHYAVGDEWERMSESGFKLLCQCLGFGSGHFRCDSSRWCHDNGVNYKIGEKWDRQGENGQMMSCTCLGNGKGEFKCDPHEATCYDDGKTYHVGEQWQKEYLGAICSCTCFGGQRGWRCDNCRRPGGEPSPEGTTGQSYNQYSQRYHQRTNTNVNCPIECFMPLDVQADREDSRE

On to fibronectin, P02751, for which the half-inhibitory concentration (IC50) is 4.9 nM.

The term IC50 denotes the concentration needed to halve the response being measured. Higher therefore signals weaker potency.
